Data on one substance can be found in patent US20160199445A1, “USE OF ARPIN A NEW INHIBITOR OF THE ARP2/3 COMPLEX FOR THE DIAGNOSIS AND TREATMENT OF DISEASES” (CENTRE NATIONAL DE LA RECHERCHE SCIENTIFIQUE, priority 2013, published 2016).

In assay [1] the target is Purified Arp2/3 complex. Briefly: fluorescence anisotropy, competition with labelled ArpinA bound to purified Arp2/3 complex. Background: Polarisation of emitted light reports the rotation of a fluorescent probe.
In assay [2] the target is Purified Arp2/3 complex. Briefly: fluorescence anisotropy; labelled ArpinA peptide bound to purified Arp2/3 titrated with purified Arpin FL.

For the substance “Human full length Arpin (residues 1-226), purified from E. coli, cleaved off GST by TEV protease (from UniProt Q7Z6K5 1-226)”, in the assay with Purified Arp2/3 complex [1], the IC50 (read off the curve) was determined as 300 nM and the Kd (in general, the free concentration of one partner at which half of the binding sites on the other are occupied at equilibrium, for simple one-to-one binding) came out at 205 nM. Moreover, the Kd in the assay with Purified Arp2/3 complex [2] turned out to be 200 nM.
